The source of these data is patent US20190241662A1 (ADAGENE, published 2019).

The target in assay [1] is T1, recombinant human CTLA4-Fc (human, UniProt P16410 36-162).
T1 construct: also called human CTLA4 fused with human FC fragment; CTLA4-Fc (Sino Biological, 11159-H03H)
T1 sequence (looked up): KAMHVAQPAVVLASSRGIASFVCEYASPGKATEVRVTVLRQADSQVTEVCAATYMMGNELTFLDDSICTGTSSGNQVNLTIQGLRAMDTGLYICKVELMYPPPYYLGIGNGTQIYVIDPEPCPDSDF
Nature of the assay: ELISA, coated human CTLA4-Fc. How it is done: (§1) The ability of certain IgG antibodies to bind to soluble human (FIG. 1A, Table 5A) or canine (FIG. 1B, Table 5B) CTLA4 was next tested. 1 μg/mL human CTLA4 fused with human FC fragment, or canine CTLA4 fused with His tag, were prepared and used to coat an ELISA plate at 2-8° C. overnight. After blocking, 100 μL serial diluted IgG antibodies were added and incubated at 37° C. for 1 hour. Plates were washed for four times and then incubated with HRP-anti human IgG (Fab specific) (1:6000 dilution) at 37° C. for 1 hour. Plates were washed again four times and incubated with TMB substrate for 15 minutes at room temperature. […] The data was analyzed by Graphpad Prism 6 with nonlinear fitting.

Assay [2] addresses T2, canine CTLA4 fused with His tag (canine, UniProt Q9XSI1 36-162, limits assumed).
T2 construct: also called dog CTLA4
T2 sequence (looked up): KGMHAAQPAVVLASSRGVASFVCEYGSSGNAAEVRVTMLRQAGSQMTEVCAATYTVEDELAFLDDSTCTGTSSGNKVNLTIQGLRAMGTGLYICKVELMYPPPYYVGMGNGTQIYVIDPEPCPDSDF
Nature of the assay: ELISA, coated canine CTLA4-His. Here is the method: as §1

Assay [3] concerns the target T3, recombinant human CTLA4 protein (construct not stated) (human, UniProt P16410 36-162, limits assumed).
T3 construct: also called biotinylated human CTLA4; human recombinant CTLA4 proteins
T3 sequence (looked up): T1 sequence (looked up)
Nature of the assay: SPR (Biacore T200), IgG captured by anti-human Fc. From the text: (§2) Binding affinity and kinetics of antibodies against human, monkey and mouse CTLA4 were examined (Table 4) by surface plasmon resonance (SPR) analysis using a Biacore™ T200 instrument (Biacore AB, Uppsala, Sweden) according to the manufacturer's guidelines. Anti-Human IgG (Fc) antibody from Human Antibody Capture Kit (GE BR-1008-39) was immobilized on CM5 chips by coupling of its amine groups onto carboxylated surfaces of sensor chips according to the instructions of an Amine Coupling kit (GE Biacore #BR-1000-50). […] The association and dissociation curves were fitted to a 1:1 Langmuir binding model using Biacore T200 Evaluation Software (Biacore AB) according to the manufacturer's guidelines.

In assay [4] the target is T4, monkey CTLA4 (SPR analyte, construct not stated) (monkey, UniProt G7PL88 36-161).
T4 sequence: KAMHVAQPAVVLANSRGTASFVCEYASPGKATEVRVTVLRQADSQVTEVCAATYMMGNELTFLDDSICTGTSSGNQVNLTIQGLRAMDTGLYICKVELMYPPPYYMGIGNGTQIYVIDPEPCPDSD
Nature of the assay: SPR (Biacore T200), IgG captured by anti-human Fc.
Excerpt: as §2

Assay [5] deals with T5, recombinant human CTLA4 fused with human Fc and His tag (human, UniProt P16410 36-162, limits assumed).
T5 construct: Coated in the CD80 ELISA, biotinylated and in solution in the CD86 ELISA; also called biotinylated human CTLA4 fused with human FC and His tag
T5 sequence (looked up): T1 sequence (looked up)
The experiment in a line: competition ELISA: plate-bound human CTLA4-Fc-His, biotinylated CD80 as blocked ligand. How it is done:
Antibodies were then tested for their ability to block binding of CTLA4 to its cognate ligands CD80 and CD86 by ELISA. […] Plates were blocked with PBS supplemented with 2% (w/v) skim milk at 37° C. for 1 hour. […] Plates were washed four times, and 100 μL HRP-neutravidin (1:1000) was added to each well and incubated at 37° C. for 1 hour. Plates were washed as previously described, and 50 μL TMB substrate solution was added and incubated at room temperature for 5 minutes before the reaction was stopped by 50 μL sulfate acid (2M).

Assay [6] concerns the target T6, full-length human CTLA4 expressed on cells (human, UniProt P16410 36-223).
T6 sequence (looked up): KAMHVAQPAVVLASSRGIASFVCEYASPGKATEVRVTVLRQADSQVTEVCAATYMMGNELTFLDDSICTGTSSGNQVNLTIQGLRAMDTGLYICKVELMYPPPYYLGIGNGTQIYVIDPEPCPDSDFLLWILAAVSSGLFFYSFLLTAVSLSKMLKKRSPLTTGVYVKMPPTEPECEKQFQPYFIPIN
The experiment in a line: cell-based or functional assay.

Assay [7] has as its target mouse CTLA4 (SPR analyte, construct not stated) (mouse, UniProt P09793 36-162, limits assumed). Nature of the assay: SPR (Biacore T200), IgG captured by anti-human Fc.
Excerpt: as §2

Assay [8] concerns the target T7, human PD1 on HEK293F cells (human, UniProt Q15116 25-288).
T7 construct: whole, on cells
Nature of the assay: flow cytometry, transfected HEK293F cells. Here is the method:
Antibody selectivity was next examined. Human CTLA4, PD1, LAG3, Tim3, B7H3, CD95, TNFR1, OX40, CD40, PD-L1, BLTA, VISTA, PDL2, ICOS and B7H4 were transiently overexpressed on the surface of HEK293F cells. Transfected cells were washed in pre-chilled 1×PBSA buffer (1.76 mM KH2PO4, 10.14 mM Na2HPO4.12H2O, 2.68 mM KCl, 136.89 mM NaCl and 1% BSA), then incubated with 100 nM test antibodies for 1 hour on ice. Cells were washed once with staining buffer, and Alexa Fluor® 647 conjugated mouse anti-human FC antibodies were added and incubated for 30 minutes on ice, protected from light. Samples were washed once with staining buffer prior to analysis by flow cytometry.

Positions count from the first letter of the chain named.

T7 sequence (Q15116 25-288): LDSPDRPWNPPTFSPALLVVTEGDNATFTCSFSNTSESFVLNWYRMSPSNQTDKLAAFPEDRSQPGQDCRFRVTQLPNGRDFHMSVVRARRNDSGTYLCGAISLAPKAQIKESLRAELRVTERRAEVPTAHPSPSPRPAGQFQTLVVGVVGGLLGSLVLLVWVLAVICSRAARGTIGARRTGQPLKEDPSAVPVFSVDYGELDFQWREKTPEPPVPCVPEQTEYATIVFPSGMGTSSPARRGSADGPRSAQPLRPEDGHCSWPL

B1: TY21591 (antibody, V domains shown)
VH: EVQLVESGGGLVQPGGSLRLSCAASGFSLSTGGVAVSWIRQAPGKGLEWIGEIYHSGSTYYSPSLKSRVTISRDNSKNTLYLQLNSLRAEDTAVYYCARRIATATYFDYWGQGTLVTVSS
VL: DIQLTQSPSSLSASVGDRVTITCRASQTVFSRYLAWYQQKPGKAPKLLIYDASNRATGIPSRFSGSGSGTDFTLTISSLQPEDFATYYCQQSYYWPPWTFGQGTKVEIK
notes: human IgG1 (hIgG1) from Fab hit B15756
For B1, the EC50 in assay [1] came to 0.831 nM; in assay [2] it was 0.707 nM. Further, the Kd in assay [1] stood at 0.83 nM; in assay [2], 0.71 nM; in assay [3] it was 9.68 nM; in assay [4] it was 3.27 nM. Further, the LogEC50 in assay [1] was -9.08; in assay [2] it was -9.15. In assay [5], the “IC50 (read off the curve)” value is ~10 nM.

B2: TY21687 (antibody, V domains shown)
VH: EVQLVESGGGLVQPGGSLRLSCAASGFTFSGYAIHWVRQAPGKGLEWIGIISPSGGGTKYAQKFQGRVTISRDNSKNTLYLQLNSLRAEDTAVYYCARHPFAYWGQGTLVTVSS
VL: DIQLTQSPSSLSASVGDRVTITCRASQSVDFYGISFLDWYQQKPGKAPKLLIYDASNRATGIPSRFSGSGSGTDFTLTISSLQPEDFATYYCQQYVSSPPEYTFGQGTKVEIK
notes: human IgG1 (hIgG1) from Fab hit B15700
B2: the “EC50 for TCR/CD28 pathway activation (luciferase reporter, CTLA4 blockade bioassay)” value in assay [6] is 5.01 mg/L. The EC50 in assay [1] worked out at 0.32 nM; in assay [2], 0.745 nM. The Kd turned out to be 0.32 nM in assay [1]; 0.75 nM in assay [2]; 1.82 nM in assay [3]; 1.52 nM in assay [4]; 2.76 nM in assay [7]. Moreover, the LogEC50 in assay [1] was -9.49; in assay [2], -9.13. Further, the “IC50 (read off the curve)” value in assay [5] is ~20 nM.

B3: TY21585 (antibody, V domains shown)
VH: EVQLVESGGGLVQPGGSLRLSCAASGFTFSDYAIHWVRQAPGKGLEWIGIISPSSGSTNYAQKFQGRVTISRDNSKNTLYLQLNSLRAEDTAVYYCARDIHSGSSGYYYGFDVWGQGTLVTVSS
VL: B2 VL with Q27E, Y32F, D38A, Q94H, V96T, E101V
notes: human IgG1 (hIgG1) from Fab hit B15709
As to B3, the concentration giving a half-maximal response (EC50) in assay [1] was found to be 0.555 nM; in assay [2], 6.04 nM. Besides, the dissociation constant Kd in assay [1] turned out to be 0.56 nM; in assay [2], 6.05 nM; in assay [3] it was 8.15 nM; in assay [4] it was 8.26 nM; in assay [7], 1.71 nM. Besides, the LogEC50 was -9.26 in assay [1] and -8.22 in assay [2]. The binding result in assay [8] was “no binding (tested: 100 nM)”. For the same molecule, the “IC50 (read off the curve)” value in assay [5] is ~10 nM.

B4: TY21691 (antibody, V domains shown)
VH: EVQLVESGGGLVQPGGSLRLSCAASGFTFSDYAIHWVRQAPGKGLEWIGIISPSGGSTKYAQKFQGRVTISRDNSKNTLYLQLNSLRAEDTAVYYCARLGYGYFDVWGQGTLVTVSS
VL: DIQLTQSPSSLSASVGDRVTITCRASQSVDFYGISFLHWYQQKPGKAPKLLIYDASSLESGVPSRFSGSGSGTDFTLTISSLQPEDFATYYCVQALQLPLTFGQGTKVEIK
notes: human IgG1 (hIgG1) from Fab hit B15736
Regarding B4, in assay [6], the “EC50 for TCR/CD28 pathway activation (luciferase reporter, CTLA4 blockade bioassay)” value was determined as 2.64 mg/L. Moreover, the binding result in assay [8] is listed as “no binding (tested: 100 nM)”. In addition, the Kd in assay [3] was determined as 2.08 nM; in assay [4] it was 2.44 nM; in assay [7], 1.46 nM. For the same molecule, the “IC50 (read off the curve)” value in assay [5] is ~20 nM.
